Data: US9359408B2, “Fluorinated protein-based polymeric carriers” (New York University, priority 2007, dated 2016)
“Also recorded” adds a separate entry of the source.

Experiments:
[1] = Inverse temperature transition (Tt) by UV/vis absorbance at 350 nm; format: physicochemical; conditions: 4 μM protein in 10 mM phosphate buffer, pH 8.0, heated 10 to 65° C.
Protocol: UV/Vis Spectroscopy. UV/vis spectroscopy was performed on a Cary 100 UV/vis spectrometer (Agilent) to determine the inverse temperature transition (Tt) of 4 μM protein in 10 mM phosphate buffer, pH 8.0. The absorbance at 350 nm was measured as each protein sample was heated from 10 to 65° C., at a heating rate of 0.5° C./min.
Temperature-Dependent Supramolecular Assembly. The effect of temperature on the supramolecular assembly of the proteins was examined via absorption at 350 nm. The inverse temperature transition (Tt) was determined via temperature-dependent absorption (FIG. 3, insets). The Tt values for all fluorinated block polymers were different, affirming the significance of block orientation and number. […] In comparison to the wt proteins, fluorination appeared to depress the Tt of CE protein from 36 to 28° C.

[2] = Microrheology of protein solutions (bead tracking, G′/G″); format: physicochemical
Protocol: Microrheology. To assess the mechanical properties of all proteins, microrheology was performed using an inverted Leica DM-138 IRB microscope with a 20× objective lens at 22 and 42° C., maintained by a Lincum temperature-controlled cell. […] A total of 2 μL of 2 wt % fluorescent-amidated polystyrene beads (1.0 μm) was added to 10 μL of protein solution. Deionized water, 2 wt % beads, was measured as a control. Brownian motion of the beads was observed by Peltier-cooled video camera (QiCam) and digitally recorded. Mean square displacement (MSD) measurements of the beads were determined by IDL software (Research Systems, Inc.). Using the comprehensive Stokes-Einstein equation, the elastic modulus (G′) and viscous modulus (G″) were determined as a function of angular frequency (ω).
Mechanical Properties. Bulk rheological properties of the protein polymers were evaluated by microrheology (FIG. 4).
Upon fluorination, more depressed concentration-dependent percolation points for the protein polymers were observed. […] Two types of modifications to the rheological behavior are observed from EC and CE sets of constructs.

B1: pFF-EC: Elastin-COMPcc diblock protein polymer with phenylalanine residues replaced by p-fluorophenylalanine (SEQ ID NO: 15) (protein)
chain: MRGSHHHHHHGSKPIAASAVPGVGVPGVGVPGFGVPGVGVPGVGVPGVGVPGVGVPGFGVPGVGVPGVGVPGVGVPGVGVPGFGVPGVGVPGVGVPGVGVPGVGVPGFGVPGVGVPGVGVPGVGVPGVGVPGFGVPGVGVPGVGVPLEGSELAATATATATATATAACGDLAPQMLRELQETNAALQDVRELLRQQVKEITFLKNTVMESDASGLQAATATATATATATAVDLQPS
modifications: Phe replaced by p-fluorophenylalanine
inverse temperature transition (Tt) [1]: 25 °C | rheological character ([2]; 1.25 mg mL^−1, 22° C.): viscoelastic behavior | rheological character ([2]; 2.5 mg mL^−1, 22° C.): viscoelastic behavior | rheological character ([2]; 2.5 mg mL^−1, 42° C.): more elastic character

B2: wt-EC: non-fluorinated Elastin-COMPcc block polymer (SEQ ID NO: 15) (protein)
chain: B1 chain
rheological character ([2]; 1.25 mg mL^−1, 22° C.): predominantly viscous | rheological character ([2]; 2.5 mg mL^−1, 42° C.): more elastic character | rheological character ([2]; 10 mg mL^−1): elastic network | rheological character ([2]; concentrations below 2.5 mg mL^−1): predominantly viscous

B3: pFF-ECE: Elastin-COMPcc-Elastin triblock protein polymer with phenylalanine residues replaced by p-fluorophenylalanine (SEQ ID NO: 17) (protein)
chain: MRGSHHHHHHGSKPIAASAVPGVGVPGVGVPGFGVPGVGVPGVGVPGVGVPGVGVPGFGVPGVGVPGVGVPGVGVPGVGVPGFGVPGVGVPGVGVPGVGVPGVGVPGFGVPGVGVPGVGVPGVGVPGVGVPGFGVPGVGVPGVGVPLEGSELAATATATATATATAACGDLAPQMLRELQETNAALQDVRELLRQQVKEITFLKNTVMESDASGLQAATATATATATATAVDKPIAASAVPGVGVPGVGVPGFGVPGVGVPGVGVPGVGVPGVGVPGFGVPGVGVPGVGVPGVGVPGVGVPGFGVPGVGVPGVGVPGVGVPGVGVPGFGVPGVGVPGVGVPGVGVPGVGVPGFGVPGVGVPGVGVPLEGSGTGAKLN
modifications: Phe replaced by p-fluorophenylalanine
inverse temperature transition (Tt) [1]: 32 °C | rheological character ([2]; 1.25 mg mL^−1, 42° C.): elastic network formation

B4: wt-ECE: non-fluorinated Elastin-COMPcc-Elastin block polymer (SEQ ID NO: 17) (protein)
chain: B3 chain
rheological character ([2]; 1.25 mg mL^−1, 42° C.): completely viscous | rheological character ([2]; up to 10 mg mL^−1): viscoelastic

B5: pFF-CE: COMPcc-Elastin diblock protein polymer with phenylalanine residues replaced by p-fluorophenylalanine (SEQ ID NO: 23) (protein)
chain: MRGSHHHHHHGSACELAATATATATATATAACGDLAPQMLRELQETNAALQDVRELLRQQVKEITFLKNTVMESDASGLQAATATATATATATAVDKPIAASAVPGVGVPGVGVPGFGVPGVGVPGVGVPGVGVPGVGVPGFGVPGVGVPGVGVPGVGVPGVGVPGFGVPGVGVPGVGVPGVGVPGVGVPGFGVPGVGVPGVGVPGVGVPGVGVPGFGVPGVGVPGVGVPLEGSGTGAKLN
modifications: Phe replaced by p-fluorophenylalanine
inverse temperature transition (Tt) [1]: 28 °C | rheological character ([2]; 1.25 mg mL^−1, 22° C.): viscous/viscoelastic | rheological character ([2]; 2.5 mg mL^−1, 22° C.): viscous/viscoelastic | rheological character ([2]; 2.5 mg mL^−1, 42° C.): elastic behavior; also recorded: dominant elastic modulus

B6: wt-CE: non-fluorinated COMPcc-Elastin block polymer (SEQ ID NO: 16) (protein)
chain: MRGSHHHHHHGSACELAATATATATATATAACGDLAPQMLRELQETNAALQDVRELLRQQVKEITFLKNTVMESDASGLQAATATATATATATAVDKPIAASAVPGVGVPGVGVPGFGVPGVGVPGVGVPGVGVPGVGVPGFGVPGVGVPGVGVPGVGVPGVGVPGFGVPGVGVPGVGVPGVGVPGVGVPGFGVPGVGVPGVGVPGVGVPGVGVPGFGVPGVGVPGVGVPLEGSGTGAKL
inverse temperature transition (Tt) [1]: 36 °C | rheological character ([2]; 1.25 mg mL^−1, 22° C.): viscous/viscoelastic | rheological character ([2]; 2.5 mg mL^−1, 22° C.): viscous/viscoelastic | rheological character ([2]; 2.5 mg mL^−1, 42° C.): viscoelastic character | rheological character ([2]; up to 10 mg mL^−1): predominantly viscous
